Experiment [1] concerns the target T1, recombinant human integrin αVβ5 ectodomain (human, UniProt P06756 32-991; P18084 24-717, glycosylated with heterogeneous glycans).
T1 construct: range 32-991;range 24-717; Used in the solution assays (anisotropy, MST, HDX-MS, FRET); An introduced Cys and the rest of the HRV3C site would remain after cleavage; also called αVβ5 alone; αVβ5/Mn2+
Kind of experiment: fluorescence anisotropy, A488-irisin-bac, αVβ5 varied 0-6000 nM, 1 mM MnCl2. A general note: Fluorescence polarisation rises when a labelled molecule tumbles more slowly, as on binding a larger partner.

The target of experiment [2] is T1, recombinant human integrin αVβ5 …. Nature of the experiment: fluorescence anisotropy competition, 50 nM A488-irisin-WT (bacterial) and 1000 nM αVβ5, varied unlabeled irisin-WT (FIG. 7F); competition, wild type bacterial dimer, run beside R75E (FIG. 7F).
For experiment [3] the target is unchanged. Kind of experiment: fluorescence anisotropy, compared with irisin-mam on αVβ5.
The target is the same in experiment [4]. Nature of the experiment: fluorescence anisotropy competition, 50 nM A488-irisin-bac and 1000 nM αVβ5, varied unlabeled irisin-bac (FIG. 7E); competition, unlabeled irisin-bac vs A488-irisin-bac (FIG. 7E).
The target is the same in experiment [5]. Kind of experiment: fluorescence anisotropy competition: 50 nM A488-irisin-WT probe and 1000 nM αVβ5, unlabeled irisin-WT varied 0-4000 nM.
Experiment [6] has the same target. Nature of the experiment: fluorescence anisotropy competition: 50 nM A488-irisin-bac probe and 1000 nM αVβ5, unlabeled irisin-bac varied 0-4000 nM.
Experiment [7] has the same target. Nature of the experiment: fluorescence anisotropy, A488-irisin-bac, varied αVβ5, 1 mM MnCl2 (FIG. 7D); direct binding, A488-irisin-bac (FIG. 7D).
The target is the same in experiment [8]. Kind of experiment: fluorescence anisotropy competition: 50 nM A488-irisin-WT probe and 1000 nM αVβ5, unlabeled irisin-R75E varied 0-4000 nM.
Experiment [9] shares this target. Nature of the experiment: fluorescence anisotropy competition, 50 nM A488-irisin-WT (bacterial) and 1000 nM αVβ5, varied unlabeled irisin-R75E (FIG. 7F); competition, R75E monomer mutant (FIG. 7F).
For experiment [10], the target named is T2, clasped and tagged αVβ5 (recombinant human αVβ5 ectodomain with C-terminal coiled-coil clasp and affinity … (human, UniProt P06756 32-991; P18084 24-717, glycosylated).
T2 construct: range 32-991;range 24-717; Used in BLI (streptavidin sensors) and TALON pull-downs; also called clasped αVβ5; immobilized clasped αVβ5; not shown: introduced Cys, HRV3C site, acidic α-helical coiled-coil and twin Strep-II tag; introduced Cys, HRV3C site, basic α-helical coiled-coil and 8xHis tag
Kind of experiment: BLI (Octet RED384), clasped and tagged αVβ5 on streptavidin sensors, 1 mM MgCl2 and 1 mM CaCl2; affinity-purified αVβ5 preparation that still held co-purified Hsp90α (FIG. 1B). The protocol:
(§1) The domain boundaries are as follows: αV, 32-991; β5, 24-717.
Biolayer Inferometry (BLI) measurements were conducted by Octet RED384. […] Data analysis HT software was used for the fitting and Kd calculations.
A general note: BLI is a label-free optical method that tracks binding on a fibre tip over time.

In experiment [11] the target is T3, αVβ5/Hsp90α complex (reconstituted from recombinant human αVβ5 ectodomain and recombinant human Hsp90α) (human, UniProt P06756 32-991; P18084 24-717; P07900 2-732, glycosylated).
T3 construct: range 32-991;range 24-717;mature; also called integrin/Hsp90α complex
Nature of the experiment: fluorescence anisotropy competition, 50 nM A488-irisin-His and 125 nM αVβ5/Hsp90α, varied unlabeled irisin-His (FIG. 1H).
From the text: as §1

Experiment [12] deals with T1, recombinant human integrin αVβ5 …. Nature of the experiment: fluorescence anisotropy competition: 50 nM A488-irisin-bac probe and 1000 nM αVβ5, unlabeled irisin-mam (irisin-His) varied 0-4000 nM.
The target is the same in experiment [13]. Nature of the experiment: fluorescence anisotropy binding assay with labelled irisin, αVβ5 varied 0-1000 nM as the positive curve beside the Hsp90α curves; buffer and activation state of αVβ5 not given in the legend.
For experiment [14], the target named is T4, recombinant human Hsp90α (purified from E. coli, untagged) (human, UniProt P07900 2-732).
T4 construct: mature; Tested as Apo and as ATP-, AMP-PNP- and ADP-charged forms; also called eHsp90α; Hsp90α-Apo
Nature of the experiment: fluorescence anisotropy binding assay with labelled irisin, Hsp90α without nucleotide or charged with ATP, AMP-PNP or ADP varied 0-2500 nM.

The target of experiment [15] is T3, αVβ5/Hsp90α complex (reconstituted from …). Kind of experiment: summary sentence of Example 2: αVβ5 receptor activated by eHsp90α; αVβ5 activated by eHsp90α; rounded summary value.
For experiment [16], the target named is T1, recombinant human integrin αVβ5 …. Kind of experiment: fluorescence anisotropy, 50 nM A488-irisin-His, αVβ5 in 1 mM MnCl2 (FIG. 4D).
In experiment [17] the target is T3, αVβ5/Hsp90α complex (reconstituted from …). Nature of the experiment: fluorescence anisotropy, 50 nM A488-irisin-His, varied αVβ5/Hsp90α complex, 1 mM MgCl2 and 1 mM CaCl2 (FIG. 1G).
From the text: as §1

The target in experiment [18] is T1, recombinant human integrin αVβ5 …. Kind of experiment: fluorescence anisotropy, direct binding: labelled irisin WT with varied aVß5 concentration (0 to 1000 nM); black curve and black label.
Experiment [19] has as its target T3, αVβ5/Hsp90α complex (reconstituted from …). Nature of the experiment: fluorescence anisotropy, 50 nM A488-irisin-His, αVβ5/Hsp90α complex in 1 mM MgCl2 and 1 mM CaCl2 (FIG. 4D).
For experiment [20], the target named is T1, recombinant human integrin αVβ5 …. Kind of experiment: fluorescence anisotropy competition, 50 nM A488-irisin-bac and 1000 nM αVβ5, varied unlabeled irisin-mam (irisin-His) (FIG. 7E); competition, unlabeled irisin-mam vs A488-irisin-bac (FIG. 7E).
Experiment [21] addresses T3, αVβ5/Hsp90α complex (reconstituted from …). Nature of the experiment: fluorescence anisotropy competition: 50 nM A488-irisin-His probe and 125 nM αVβ5 (as αVβ5/Hsp90α complex), unlabeled irisin-His varied 0-6000 nM.
From the text: as §1

Experiment [22] has the same target. Kind of experiment: fluorescence anisotropy competition, 50 nM A488-irisin-His and 125 nM αVβ5/Hsp90α, varied unlabeled untagged irisin (FIG. 1H).
From the text: as §1

For experiment [23] the target is unchanged. Kind of experiment: fluorescence anisotropy competition: unlabeled WT irisin (0 to 6000 nM) against the labelled WT irisin probe on the αVβ5/Hsp90 complex; black curve.
The target is the same in experiment [24]. Kind of experiment: fluorescence anisotropy competition: 50 nM A488-irisin-His probe and 125 nM αVβ5 (as αVβ5/Hsp90α complex), unlabeled untagged irisin varied 0-6000 nM.
From the text: as §1

The target in experiment [25] is T1, recombinant human integrin αVβ5 …. Kind of experiment: fluorescence anisotropy, direct binding: labelled irisin N45Q with varied aVß5 concentration (0 to 1000 nM); grey curve and grey label.
In experiment [26] the target is T3, αVβ5/Hsp90α complex (reconstituted from …). Nature of the experiment: fluorescence anisotropy competition: unlabeled N45Q (0 to 6000 nM) against the labelled WT irisin probe on the αVβ5/Hsp90 complex; grey curve.

As a reminder, the Kd is the concentration at which binding is half-saturated. One may read the IC50 as the concentration needed to halve the response being measured. In general, Ki refers to the dissociation constant of the complex between target and ligand, obtained from inhibition or displacement.

B1: irisin-bac (non-glycosylated irisin dimer produced in bacteria) (ligand, UniProt Q8K4Z2 61-171, looked up)
chain: SPSAPVNVTVRHLKANSAVVSWDVLEDEVVIGFAISQQKKDVRMLRFIQEVNTTTRSCALWDLEEDTEYIVHVQAISIQGQSPASEPVLFKTPREAEKMASKNKDEVTMKE
modifications: Alexa Fluor 488 label where used as probe
notes: also called A488-irisin-bac
Consider B1, for which the dissociation constant Kd turned out to be 317 nM in experiment [1], 299 nM in experiment [2], 294 nM in experiment [4] and 256 nM in [7]. Further, in experiment [3], the “fold weaker affinity than irisin-mam” value is roughly 8 fold. Besides, the concentration for half-maximal inhibition (IC50) in experiment [5] was determined as 1270 nM; in [6], 1190 nM.

B2: irisin-R75E (non-glycosylated irisin monomer mutant R75E from bacteria) (ligand, UniProt Q8K4Z2-1 30-140, looked up)
chain: SPSAPVNVTVRHLKANSAVVSWDVLEDEVVIGFAISQQKKDVRMLEFIQEVNTTTRSCALWDLEEDTEYIVHVQAISIQGQSPASEPVLFKTPREAEKMASKNKDEVTMKE
notes: also called monomeric mutant
For the molecule B2, in experiment [8], the IC50 was determined as 198 nM. The Kd in experiment [9] was found to be 42 nM.

B3: irisin-His (wild-type, glycosylated recombinant irisin, His tagged, from mammalian cells) (ligand)
chain: DSPSAPVNVTVRHLKANSAVVSWDVLEDEVVIGFAISQQKKDVRMLRFIQEVNTTTRSCALWDLEEDTEYIVHVQAISIQGQSPASEPVLFKTPREAEKMASKNKDEVTMKEHHHHHHHHHHRDPLEVLFQ
modifications: N-glycosylated at N36, N45 and N81 (numbers as printed); Alexa Fluor 488, 555 or 647 label where the assay says so
notes: Monomer by SEC-MALS; also called irisin-mam; A488-irisin-His
For the molecule B3, the Kd is 212 nM in experiment [10]; 52 nM in [11]; 43 nM in experiment [13]; roughly 30 nM in [15]; 28 nM in experiment [16]; 31 nM in experiment [17]. Further, the Kd was 6 nM in experiment [18], 37 nM in experiment [19] and 35 nM in experiment [20]. The IC50 in experiment [12] was 165 nM; in experiment [21] it was 499 nM. In addition, the binding result in [14] is recorded as “no binding (tested: 2500 nM)”.

B4: untagged irisin (wild-type, glycosylated recombinant irisin from mammalian cells) (ligand)
chain: DSPSAPVNVTVRHLKANSAVVSWDVLEDEVVIGFAISQQKKDVRMLRFIQEVNTTTRSCALWDLEEDTEYIVHVQAISIQGQSPASEPVLFKTPREAEKMASKNKDEVTMKE
modifications: N-glycosylated at N36, N45 and N81 (numbers as printed)
notes: also called unlabeled and untagged irisin; WT irisin
With B4, the Kd in [22] turned out to be 50 nM. In addition, the half-maximal inhibitory concentration (IC50) in [23] came out at 440 nM; in experiment [24], 477 nM. In experiment [23], the Ki is 56 nM.

B5: irisin N45Q mutant (irisin glycosylation mutant, recombinant, from mammalian Expi293 cells) (ligand)
chain: DSPSAPVNVTVRHLKAQSAVVSWDVLEDEVVIGFAISQQKKDVRMLRFIQEVNTTTRSCALWDLEEDTEYIVHVQAISIQGQSPASEPVLFKTPREAEKMASKNKDEVTMKE
modifications: glycosylated at positions 36 and 81; position 45 is Q, not N-glycosylated
Regarding B5, the Kd in experiment [25] turned out to be 32 nM. Further, in experiment [26], the IC50 was 35 nM and the Ki was 9 nM.

Source of the values: patent US20260139023A1 (Dana-Farber, published 2026).
